Measured values as given in the RNAGym collection of RNA variant scans (doi:10.7554/elife.80360).

B1: Hairpin Ribozyme (parent)
chain: GUCCUCUUUCACGUGCGCGUGAAAGAGAGAAGUGAACCAGAGAAACACACGUUGUGGUAUAUUACCUGGUA

Variants of: B1
Experiment: self-cleavage, relative activity (ratio to wild type); higher = more cleavage; co-transcriptional

Variant | self-cleavage
GUCCUCUUUCACGUGCGAGUGAAAGAGAGAAGUGAACCCGAGAAACACACGUUGUGGUAUAUUACCUGGUA [C18A A39C] | 0.538
GUCCUCUUUCACGUGCGAGUGAAAGAGAGAAGUGAACCUGAGAAACACACGUUGUGGUAUAUUACCUGGUA [C18A A39U] | 0.345
GUCCUCUUUCACGUGCGAGUGAAAGAGAGAAGUGAACCAGUGAAACACACGUUGUGGUAUAUUACCUGGUA [C18A A41U] | 1.37
GUCCUCUUUCACGUGCGAGUGAAAGAGAGAAGUGAACCAGAGACACACACGUUGUGGUAUAUUACCUGGUA [C18A A44C] | 0.219
GUCCUCUUUCACGUGCGAGUGAAAGAGAGAAGUGAACCAGAGAAGCACACGUUGUGGUAUAUUACCUGGUA [C18A A45G] | 0.187
GUCCUCUUUCACGUGCGAGUGAAAGAGAGAAGUGAACCAGAGAAACUCACGUUGUGGUAUAUUACCUGGUA [C18A A47U] | 0.181
GUCCUCUUUCACGUGCGAGUGAAAGAGAGAAGUGAACCAGAGAAACACCCGUUGUGGUAUAUUACCUGGUA [C18A A49C] | 0.208
GUCCUCUUUCACGUGCGAGUGAAAGAGAGAAGUGAACCAGAGAAACACACGUUGUGGUCUAUUACCUGGUA [C18A A59C] | 0.159
GUCCUCUUUCACGUGCGAGUGAAAGAGAGAAGUGAACCAGAGAAACACACGUUGUGGUAUCUUACCUGGUA [C18A A61C] | 0.132
GUCCUCUUUCACGUGCGAGUGAAAGAGAGAAGUGAACCAGAGAAACACACGUUGUGGUAUGUUACCUGGUA [C18A A61G] | 0.25
GUCCUCUUUCACGUGCGAGUGAAAGAGAGAAGUGAACCAGAGAAACACACGUUGUGGUAUUUUACCUGGUA [C18A A61U] | 0.138
GUCCUCUUUCACGUGCGAGUGAAAGAGAGAAGUGAAGCAGAGAAACACACGUUGUGGUAUAUUACCUGGUA [C18A C37G] | 0.351
GUCCUCUUUCACGUGCGAGUGAAAGAGAGAAGUGAACGAGAGAAACACACGUUGUGGUAUAUUACCUGGUA [C18A C38G] | 0.213
GUCCUCUUUCACGUGCGAGUGAAAGAGAGAAGUGAACUAGAGAAACACACGUUGUGGUAUAUUACCUGGUA [C18A C38U] | 0.526
GUCCUCUUUCACGUGCGAGUGAAAGAGAGAAGUGAACCAGAGAAAGACACGUUGUGGUAUAUUACCUGGUA [C18A C46G] | 0.12
GUCCUCUUUCACGUGCGAGUGAAAGAGAGAAGUGAACCAGAGAAACAGACGUUGUGGUAUAUUACCUGGUA [C18A C48G] | 0.0794
GUCCUCUUUCACGUGCGAGUGAAAGAGAGAAGUGAACCAGAGAAACACAGGUUGUGGUAUAUUACCUGGUA [C18A C50G] | 0.309
GUCCUCUUUCACGUGCGAGUGAAAGAGAGAAGUGAACCAGAGAAACACACGUUGUGGUAUAUUAGCUGGUA [C18A C65G] | 0.091
GUCCUCUUUCACGUGCGAUUGAAAGAGAGAAGUGAACCAGAGAAACACACGUUGUGGUAUAUUACCUGGUA [C18A G19U] | 0.923
GUCCUCUUUCACGUGCGAGUAAAAGAGAGAAGUGAACCAGAGAAACACACGUUGUGGUAUAUUACCUGGUA [C18A G21A] | 0.895
GUCCUCUUUCACGUGCGAGUCAAAGAGAGAAGUGAACCAGAGAAACACACGUUGUGGUAUAUUACCUGGUA [C18A G21C] | 0.885
GUCCUCUUUCACGUGCGAGUGAAAGAUAGAAGUGAACCAGAGAAACACACGUUGUGGUAUAUUACCUGGUA [C18A G27U] | 0.332
GUCCUCUUUCACGUGCGAGUGAAAGAGAGAAUUGAACCAGAGAAACACACGUUGUGGUAUAUUACCUGGUA [C18A G32U] | 0.135
GUCCUCUUUCACGUGCGAGUGAAAGAGAGAAGUCAACCAGAGAAACACACGUUGUGGUAUAUUACCUGGUA [C18A G34C] | 1.56
GUCCUCUUUCACGUGCGAGUGAAAGAGAGAAGUGAACCAGAGAAACACACCUUGUGGUAUAUUACCUGGUA [C18A G51C] | 0.896
GUCCUCUUUCACGUGCGAGUGAAAGAGAGAAGUGAACCAGAGAAACACACUUUGUGGUAUAUUACCUGGUA [C18A G51U] | 1.12

Variant | self-cleavage
GUCCUCUUUCACGUGCGAGUGAAAGAGAGAAGUGAACCAGAGAAACACACGUUUUGGUAUAUUACCUGGUA [C18A G54U] | 0.62
GUCCUCUUUCACGUGCGAGUGAAAGAGAGAAGUGAACCAGAGAAACACACGUUGUCGUAUAUUACCUGGUA [C18A G56C] | 0.136
GUCCUCUUUCACGUGCGAGUGAAAGAGAGAAGUGAACCAGAGAAACACACGUUGUGUUAUAUUACCUGGUA [C18A G57U] | 0.439
GUCCUCUUUCACGUGCGAGUGAAAGAGAGAAGUGAACCAGAGAAACACACGUUGUGGUAUAUUACCUAGUA [C18A G68A] | 0.272
GUCCUCUUUCACGUGCGAGUGAAAGAGAGAAGUGAACCAGAGAAACACACGUUGUGGUAUAUUACCUGCUA [C18A G69C] | 0.403
GUCCUCUUUCACGUGCGAGUGAAAGAGAGAAGUGAACCAGAGAAACACACGUUGUGGUAUAUUACCUGUUA [C18A G69U] | 0.339
GUCCUCUUUCACGUGCGAGCGAAAGAGAGAAGUGAACCAGAGAAACACACGUUGUGGUAUAUUACCUGGUA [C18A U20C] | 0.97
GUCCUCUUUCACGUGCGAGUGAAAGAGAGAAGUGAACCAGAGAAACACACGUUGAGGUAUAUUACCUGGUA [C18A U55A] | 0.364
GUCCUCUUUCACGUGCGAGUGAAAGAGAGAAGUGAACCAGAGAAACACACGUUGGGGUAUAUUACCUGGUA [C18A U55G] | 0.296
GUCCUCUUUCACGUGCGAGUGAAAGAGAGAAGUGAACCAGAGAAACACACGUUGUGGAAUAUUACCUGGUA [C18A U58A] | 0.577
GUCCUCUUUCACGUGCGAGUGAAAGAGAGAAGUGAACCAGAGAAACACACGUUGUGGGAUAUUACCUGGUA [C18A U58G] | 0.652
GUCCUCUUUCACGUGCGAGUGAAAGAGAGAAGUGAACCAGAGAAACACACGUUGUGGUAUAUAACCUGGUA [C18A U63A] | 0.13
GUCCUCUUUCACGUGCGAGUGAAAGAGAGAAGUGAACCAGAGAAACACACGUUGUGGUAUAUGACCUGGUA [C18A U63G] | 0.204
GUCCUCUUUCACGUGCGAGUGAAAGAGAGAAGUGAACCAGAGAAACACACGUUGUGGUAUAUUACCAGGUA [C18A U67A] | 0.191
GUCCUCUUUCACGUGCGAGUGAAAGAGAGAAGUGAACCAGAGAAACACACGUUGUGGUAUAUUACCGGGUA [C18A U67G] | 0.329
GUCCUCUUUCACGUGCGAGUGAAAGAGAGAAGUGAACCAGAGAAACACACGUUGUGGUAUAUUACCUGGAA [C18A U70A] | 0.916
GUCCUCUUUCACGUGCGGGUGACAGAGAGAAGUGAACCAGAGAAACACACGUUGUGGUAUAUUACCUGGUA [C18G A23C] | 0.746
GUCCUCUUUCACGUGCGGGUGAACGAGAGAAGUGAACCAGAGAAACACACGUUGUGGUAUAUUACCUGGUA [C18G A24C] | 0.731
GUCCUCUUUCACGUGCGGGUGAAGGAGAGAAGUGAACCAGAGAAACACACGUUGUGGUAUAUUACCUGGUA [C18G A24G] | 0.927
GUCCUCUUUCACGUGCGGGUGAAAGGGAGAAGUGAACCAGAGAAACACACGUUGUGGUAUAUUACCUGGUA [C18G A26G] | 0.828
GUCCUCUUUCACGUGCGGGUGAAAGAGCGAAGUGAACCAGAGAAACACACGUUGUGGUAUAUUACCUGGUA [C18G A28C] | 0.445
GUCCUCUUUCACGUGCGGGUGAAAGAGGGAAGUGAACCAGAGAAACACACGUUGUGGUAUAUUACCUGGUA [C18G A28G] | 1.11
GUCCUCUUUCACGUGCGGGUGAAAGAGAGCAGUGAACCAGAGAAACACACGUUGUGGUAUAUUACCUGGUA [C18G A30C] | 0.275
GUCCUCUUUCACGUGCGGGUGAAAGAGAGUAGUGAACCAGAGAAACACACGUUGUGGUAUAUUACCUGGUA [C18G A30U] | 0.0888
GUCCUCUUUCACGUGCGGGUGAAAGAGAGAAGUGCACCAGAGAAACACACGUUGUGGUAUAUUACCUGGUA [C18G A35C] | 0.797
GUCCUCUUUCACGUGCGGGUGAAAGAGAGAAGUGACCCAGAGAAACACACGUUGUGGUAUAUUACCUGGUA [C18G A36C] | 0.473

Variant | self-cleavage
GUCCUCUUUCACGUGCGGGUGAAAGAGAGAAGUGAACCCGAGAAACACACGUUGUGGUAUAUUACCUGGUA [C18G A39C] | 0.587
GUCCUCUUUCACGUGCGGGUGAAAGAGAGAAGUGAACCGGAGAAACACACGUUGUGGUAUAUUACCUGGUA [C18G A39G] | 0.281
GUCCUCUUUCACGUGCGGGUGAAAGAGAGAAGUGAACCUGAGAAACACACGUUGUGGUAUAUUACCUGGUA [C18G A39U] | 0.474
GUCCUCUUUCACGUGCGGGUGAAAGAGAGAAGUGAACCAGAGGAACACACGUUGUGGUAUAUUACCUGGUA [C18G A43G] | 0.0801
GUCCUCUUUCACGUGCGGGUGAAAGAGAGAAGUGAACCAGAGAGACACACGUUGUGGUAUAUUACCUGGUA [C18G A44G] | 0.113
GUCCUCUUUCACGUGCGGGUGAAAGAGAGAAGUGAACCAGAGAAUCACACGUUGUGGUAUAUUACCUGGUA [C18G A45U] | 0.228
GUCCUCUUUCACGUGCGGGUGAAAGAGAGAAGUGAACCAGAGAAACGCACGUUGUGGUAUAUUACCUGGUA [C18G A47G] | 0.198
GUCCUCUUUCACGUGCGGGUGAAAGAGAGAAGUGAACCAGAGAAACACGCGUUGUGGUAUAUUACCUGGUA [C18G A49G] | 0.344
GUCCUCUUUCACGUGCGGGUGAAAGAGAGAAGUGAACCAGAGAAACACACGUUGUGGUAUAUUACCUGGUC [C18G A71C] | 1.35
GUCCUCUUUCACGUGCGGGUGAAAGAGAGAAGUGAACUAGAGAAACACACGUUGUGGUAUAUUACCUGGUA [C18G C38U] | 0.44
GUCCUCUUUCACGUGCGGGUGAAAGAGAGAAGUGAACCAGAGAAAUACACGUUGUGGUAUAUUACCUGGUA [C18G C46U] | 0.0966
GUCCUCUUUCACGUGCGGGUGAAAGAGAGAAGUGAACCAGAGAAACACAUGUUGUGGUAUAUUACCUGGUA [C18G C50U] | 0.24
GUCCUCUUUCACGUGCGGGUGAAAGAGAGAAGUGAACCAGAGAAACACACGUUGUGGUAUAUUAACUGGUA [C18G C65A] | 0.871
GUCCUCUUUCACGUGCGGGUGAAAGAGAGAAGUGAACCAGAGAAACACACGUUGUGGUAUAUUAUCUGGUA [C18G C65U] | 0.213
GUCCUCUUUCACGUGCGGAUGAAAGAGAGAAGUGAACCAGAGAAACACACGUUGUGGUAUAUUACCUGGUA [C18G G19A] | 0.907
GUCCUCUUUCACGUGCGGUUGAAAGAGAGAAGUGAACCAGAGAAACACACGUUGUGGUAUAUUACCUGGUA [C18G G19U] | 0.88
GUCCUCUUUCACGUGCGGGUCAAAGAGAGAAGUGAACCAGAGAAACACACGUUGUGGUAUAUUACCUGGUA [C18G G21C] | 0.706
GUCCUCUUUCACGUGCGGGUUAAAGAGAGAAGUGAACCAGAGAAACACACGUUGUGGUAUAUUACCUGGUA [C18G G21U] | 0.651
GUCCUCUUUCACGUGCGGGUGAAACAGAGAAGUGAACCAGAGAAACACACGUUGUGGUAUAUUACCUGGUA [C18G G25C] | 0.454
GUCCUCUUUCACGUGCGGGUGAAAUAGAGAAGUGAACCAGAGAAACACACGUUGUGGUAUAUUACCUGGUA [C18G G25U] | 0.47
GUCCUCUUUCACGUGCGGGUGAAAGAAAGAAGUGAACCAGAGAAACACACGUUGUGGUAUAUUACCUGGUA [C18G G27A] | 0.407
GUCCUCUUUCACGUGCGGGUGAAAGAGACAAGUGAACCAGAGAAACACACGUUGUGGUAUAUUACCUGGUA [C18G G29C] | 0.133
GUCCUCUUUCACGUGCGGGUGAAAGAGAGAACUGAACCAGAGAAACACACGUUGUGGUAUAUUACCUGGUA [C18G G32C] | 0.0857
GUCCUCUUUCACGUGCGGGUGAAAGAGAGAAGUGAACCACAGAAACACACGUUGUGGUAUAUUACCUGGUA [C18G G40C] | 0.0865
